This note sets out measurements from patent US7037662 (dated 2006).

Assay [1] deals with T1, soluble HEK (sHEK), complete extracellular domain (exodomain) of HEK encoded by exons I-VII (human, UniProt P29320 21-541).
T1 construct: extracellular domain; Untagged soluble exodomain from CHO cells; also called HEK exodomain
T1 sequence (looked up): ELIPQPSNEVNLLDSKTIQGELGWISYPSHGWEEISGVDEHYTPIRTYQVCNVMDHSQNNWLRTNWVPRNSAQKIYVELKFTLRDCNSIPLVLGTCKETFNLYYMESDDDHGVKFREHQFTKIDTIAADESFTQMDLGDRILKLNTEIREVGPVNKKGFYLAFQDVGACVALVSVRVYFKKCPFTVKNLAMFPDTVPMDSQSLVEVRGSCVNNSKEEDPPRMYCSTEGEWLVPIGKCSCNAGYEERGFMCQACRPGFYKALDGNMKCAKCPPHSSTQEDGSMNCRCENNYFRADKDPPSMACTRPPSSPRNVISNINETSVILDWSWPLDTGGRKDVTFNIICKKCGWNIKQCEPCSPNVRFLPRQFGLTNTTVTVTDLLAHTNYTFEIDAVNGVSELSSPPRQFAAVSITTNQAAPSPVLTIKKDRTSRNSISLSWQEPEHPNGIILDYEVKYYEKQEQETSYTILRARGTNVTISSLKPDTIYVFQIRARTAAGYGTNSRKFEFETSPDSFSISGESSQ
The experiment in a line: BIAcore, monovalent ligand constructs on HEK; reference LERK 3-FLAG. On the technique in general: SPR reads the build-up and loss of mass on a sensor chip optically.

For assay [2], the target named is T1, soluble HEK (sHEK), complete …. The experiment in a line: BIAcore, LERK-FLAG over immobilised HEK; reference LERK 3-FLAG.
The target is the same in assay [3]. In words: BIAcore, apparent KD from kinetic constants, sHEK over sensor chip-immobilised LERK 7; sHEK over sensor chip-immobilised LERK 7. The method, then:
(§1) The binding of various HEK constructs and derived peptides was analysed on the BIAcore optical biosensor (Pharmacia Biosensor, Sweden) using purified soluble HEK (corresponding to the entire extracellular domain) or LERK 7-FLAG derivatised CM 5 sensor chips and the interaction kinetics determined. The immobilization of HEK onto the sensor chip surface was performed essentially as described by Lackmann et al, 1996. LERK7-FLAG (47 μg/ml in 20 mM sodium acetate, pH 4.5) was coupled at 5 μl/min onto N-hydroxysuccinimide (NHS, 0.05 M)/N-hydroxysuccinimide-N-ethyl-N'-([…]) carbodiimide(EDC, 0.2 M) activated sensor chips (45 μl, 2 μl/min) to yield an increase in the response level of 2500–3000 response units (RU).
(§2) Figure 2D: FIG. 2D: sHEK proteins at increasing concentrations (15.6–500 nM) were injected onto LERK 7-derivatised sensor chips and the association rate constants, (M) derived from BIAcore raw data using the BIA evaluation software as described in *Materials and Methods*. Figure 2E: FIG. 2E; The kinetic rate constants were then used to estimate apparent dissociation constants according to K_D=kd/ka. The mean and standard deviation from estimates at five different concentrations are shown (dark shading). In addition, equilibrium responses were used to estimate the apparent equilibrium dissociation constants (light shading).

For assay [4] the target is unchanged. In words: BIAcore, apparent KD from kinetic rate constants, immobilised sHEK. As to the method: as §1
(§3) Figures 5A, 5B: FIG. 5: Binding curves for the interaction of monovalent LERK-FLAG fusion proteins with immobilised sHEK. Homogeneous preparations of CHO cell-derived LERK 3-FLAG (panel A) or LERK 7-FLAG (panel B) at increasing concentrations (8.22, 16.44, 32.88, 65.75, 131.5, 263, 526 nM) of LERK3-FLAG, and (1.25, 2.5, 5, 10, 20, 40, 80 nM) LERK7-FLAG were injected across an sHEK-derivatised sensor surface. BIAcore data for the association and dissociation phases were used to estimate corresponding kinetic rate constants on the basis of a one-to-one interaction model. (panel C). […]

Assay [5] deals with T2, HEK I-VII (N-terminally FLAG-tagged HEK exodomain, exons I-VII) (human, UniProt P29320 21-541).
T2 construct: extracellular domain; CHO cell product; in the zebrafish experiments expressed from injected mRNA; also called HEK-FLAG
T2 sequence (looked up): T1 sequence (looked up)
The experiment in a line: BIAcore, apparent KD from kinetic constants, HEK I-VII over sensor chip-immobilised LERK 7. As to the method: as §1, §2

For assay [6], the target named is T1, soluble HEK (sHEK), complete …. The experiment in a line: BIAcore, LERK 7-FLAG over immobilised sHEK, single component model. The method, then:
as §1, §3

B1: LERK 7-FLAG (monovalent LERK7/AL-1 with N-terminal FLAG peptide) (ligand, human, UniProt P52803 21-203, looked up, not shown: small tags and cut ends)
chain: QDPGSKAVADRYAVYWNSSNPRFQRGDYHIDVCINDYLDVFCPHYEDSVPEDKTERYVLYMVNFDGYSACDHTSKGFKRWECNRPHSPNGPLKFSEKFQLFTPFSLGFEFRPGREYFYISSAIPDNGRRSCLKLKVFVRPTNSCMKTIGVHDRVFDVNDKVENSLEPADDTVHESAEPSRGEN
notes: domain: mature protein stopped before the hydrophobic tail; also called soluble LERK7
For the molecule B1, in assay [1], the “fold more avid than LERK3” value was determined as 50 fold. The “fold lower off rate than LERK3-FLAG” value in assay [2] was determined as 40 fold. Further, the Kd was determined as 72 nM in assay [3], 12 nM in assay [4] and 62 nM in assay [5]. Moreover, the koff (commonly the first-order rate constant of dissociation) in assay [6] came to 0.0061 s⁻¹. Besides, the kon – broadly, the second-order rate constant of association – in assay [6] is 480000 M⁻¹ s⁻¹.
